Results published in patent publication US20120165244A1, “METHODS FOR BINDING LEWIS Y ANTIGEN” (priority 2008, published 2012).

Assays:
K. pneumoniae [1] = assay: Lethal bacteremia model (K. pneumoniae 5×10^3 CFU/mouse), survival; type: in vivo, Male FVB mice; conditions: single i.v. dose 10 mg/kg; K. pneumoniae 5×10^3 CFU
Experimental: Male FVB mice (8-10 weeks old) were used to model sepsis in vivo. The Institutional Animal Care and Use Committee of the National Cheng Kung University approved procedures. In the chronic endotoxemia model, various concentrations of rTMD1 or rTMD proteins in equi-molar amounts were administrated by tail intravenous (i.v.) injection and LPS (20 mg/kg) or K. pneumoniae (5×10^2 CFU/mouse, BCRC) was administrated by intraperitoneal (i.p.) injection. After 6 or 12 hours, mice were sacrificed by pentobarbital anesthesia (50 mg/kg; i.p.). […] The half-life of rTMD1 in the circulation was determined by i.v. injection of rTMD1 (10 mg/kg, equals 436.64 nmole/kg) and serum samples were collected at various time intervals. The levels of rTMD1 in the collected sera were determined by a sandwich ELISA which employed anti-c-Myc monoclonal antibody and TM-H300 as capture and detection antibodies (both from Santa Cruz Biotechnology), respectively. […] Mortality was monitored every 6-12 hours until all mice in either experimental group died. […] Serum samples were collected at various time intervals and the amount of LPS was determined by Limulus amebocyte lysate test (Associates of Cape Cod, E. Falmouth, Mass.). […] Outgrowth of K. pneumoniae was quantified by plating serial dilutions of blood samples on blood agar plates and enumerating colonies after overnight incubation at 37° C.

K. pneumoniae [2] = assay: K. pneumoniae binding assay (coated wells); conditions: FIG. 4A
Experimental: K. pneumoniae (3×10^5 CFU/well), E. coli O111:B4 smooth-type LPS (5 μg/well), or bovine serum albumin (BSA, 5 μg/well) in 100 μL of bicarbonate buffer (pH 9.6) were coated onto wells of high-binding microtiter plate (Corning Costar, Cambridge, Mass.). Nonspecific binding was blocked with binding buffer (20 mM Tris-HCl, pH 7.4, 0.15 M NaCl, 5 mM CaCl2) containing 50 mg/mL BSA. Various concentrations of rTMD proteins without or with CD14 (10 μg/mL; R&D Systems) in binding buffer containing 1 mg/mL BSA were added to wells and incubated for 2 hours. In some experiments, 0.2 M mannose, 5 mM EDTA, or Le^y were included in the binding buffer to compete with LPS and rTMD1 binding. Antibody against the c-Myc epitope of the rTMD proteins was added to wells and incubated for 2 hours, and peroxidase-labeled secondary antibody followed. Binding of rTMD proteins was detected by measuring absorbance at 450 nm.

K. pneumoniae [3] = assay: Bacterial agglutination, FITC-labeled K. pneumoniae; conditions: 20 μg/mL protein, 5 mM CaCl2
Experimental: K. pneumoniae and E. coli DH5α (BCRC) were washed twice in 0.1 M sodium bicarbonate buffer (pH 9.6) and incubated with 0.1 mg/mL fluorescein isothiocyanate (FITC) at 37° C. in the dark. Each of 20 μg/mL of rTMD1, non-tagged rTMD1, mammalian rTMD1, and recombinant TM domains 2 and 3 (rTMD23) was co-incubated with FITC-labeled bacteria (1×10^5CFU/mL) in buffer (20 mM Tris, pH 7.4, 0.15 M NaCl, 5 mM CaCl2, 1 mg/mL BSA) with or without 0.2 M mannose or 5 mM EDTA. Samples were individually placed on a glass slide and fluorescently-labeled bacteria were observed microscopically to evaluate agglutination.

RAW 264.7 cells = assay: Western blotting of LPS-induced signaling pathways in RAW 264.7 cells; type: cell-based, murine
Experimental: rTMD1 (0-50 μg/mL, equals 0-2.18 nmole/mL) pre-incubated without or with Escherichia coli (E. coli) LPS (LPS O111:B4, Sigma-Aldrich) in the absence or presence of Lewis Y (Le^y; Dextra Laboratories, Reading, UK) for 30 minutes was used to stimulate THP-1 or RAW 264.7 cells. Incubation period included 15 minutes for pIκB and IκB (B-9 and C-21, Santa Cruz Biotechnology, Santa Cruz, Calif., unless otherwise noted), 20 minutes for p38 (C-20) and pp38 (D-8), 30 minutes for ERK1/2 (K-23), pERK1/2 (E-4), lamin B2 (E-3, Zymed Laboratories, San Francisco, Calif.), NF-κB p50 (C-19) and NF-κB p65 nuclear translocation (C-20), and 24 hours for iNOS expression using a specific antibody (N-20).

[4] = target: T1, binding of LPS binding protein to LPS (Homo sapiens, UniProt P18428); assay: Binding of LPS binding protein to LPS; conditions: data not shown
T1 sequence (P18428 26-481): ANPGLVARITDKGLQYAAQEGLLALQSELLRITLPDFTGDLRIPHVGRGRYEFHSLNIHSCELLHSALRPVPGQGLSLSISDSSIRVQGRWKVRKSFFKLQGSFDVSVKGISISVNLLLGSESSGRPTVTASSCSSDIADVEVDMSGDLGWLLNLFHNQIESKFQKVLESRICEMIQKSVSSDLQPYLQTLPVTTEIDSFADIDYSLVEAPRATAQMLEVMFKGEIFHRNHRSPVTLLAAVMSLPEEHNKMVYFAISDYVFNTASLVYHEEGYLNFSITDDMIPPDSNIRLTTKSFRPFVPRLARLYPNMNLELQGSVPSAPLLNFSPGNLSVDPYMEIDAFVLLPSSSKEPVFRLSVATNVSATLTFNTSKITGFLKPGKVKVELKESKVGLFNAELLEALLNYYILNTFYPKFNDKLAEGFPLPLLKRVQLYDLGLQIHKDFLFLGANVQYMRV

B1: rTMD1: recombinant human thrombomodulin N-terminal lectin-like domain (residues Ala1-Ala155) with 6×His tag and c-Myc epitope, Pichia pastoris expressed (protein)
chain: EFAPAEPQPGGSQCVEHDCFALYPGPATFLNASQICDGLRGHLMTVRSSVAADVISLLLNGDGGVGRRRLWIGLQLPPGCGDPKRLGPLRGFQWVTGDNNTSYSRWARLDLNGAPLCGPLCVAVSAAEATVPSEPIWEEQQCEVKADGFLCEFHFPAYLEDDDDKIEQKLISEEDLNSAVDHHHHHH
modifications: left off: small tags and cut ends
For B1, the “mice surviving more than 24 hours” value (K. pneumoniae [1]) was 50%, the “binding to K. pneumoniae” value (K. pneumoniae [2]) was “specifically bind” and the “agglutination of K. pneumoniae” value (K. pneumoniae [3]) was “induced marked agglutination”. The “LPS-induced nuclear translocation of NF-κB” value (RAW 264.7 cells; FIG. 1E) was “inhibited in a dose-dependent fashion”, the “LPS-induced phosphorylation of ERK1/2 and p38” value (RAW 264.7 cells; FIG. 1F) was “inhibited” and the “LPS-induced phosphorylation and degradation of IκBα” value (RAW 264.7 cells; LPS 100 ng/mL, rTMD1 50 μg/mL (2.18 nmole/mL)) was “totally reversed”. For the same molecule, the “iNOS induction by LPS” value (RAW 264.7 cells; RAW 264.7 cells, FIG. 1G) was “inhibited” and the “binding of LPS binding protein to LPS” value [4] was “not inhibited”.
